The data set can be described thus: label from the status in PepcDB records.
Consider “AGGRERRVAVLFCDLRDFTRIAEHRLPYDTVFLLNRYFEVVGEAVEGSGGVVDKFIGDGALAIFGLKTPLPEACRQALSAAARLSQGIRALNQTFEGELEQPLRLAIGLHAGPAIIGEMGYGQATSLTVVGDTINTASRLEGLAKEHDVELAVSAELVERAGLSFEGHRRLEIGLRGRKATLETWIIGDAAQLSLSLP”, for which the protein production entry is recorded as “failed”. As to “SQYKNISEKIVHIIQQEFDTDLTLESIAGRLHYNPNYLSSIFRKEMKISFSEYLSSYRHHIAKNWLTETTMSVKEISEKLKYKNPQNFIRSFKKLEGITPGKYRELKNHS”, the protein production result is recorded as “not failed”. Turning to “MASTTRPAPTVGFDLDMTLIDSRPGIRACYVELSARTGTYVDADLAVTRLGPPLAEELANWFPAEEIEAVADLYREIYPAYAIEPTLALPGAREAVTAVRGAGGRAVVVTAKYEPNAKLHLAHLGIEPDAVIGGLWAEQKAVALREHDADVYVGDHVGDVRGARAAGARSVAVASGPCDAGELRAAGADVVLADLTAFPEWLAAYRDGEGDAEGLDAARA”, the protein production entry is on record as “failed”. Regarding “MHSQIWVVSTLLISIVLIVLTIVKFKFHPFLALLLASFFVGTMMGMGPLDMVNAIESGIGGTLGFLAAVIGLGTILGKMMEVSGAAERIGLTLQRCRWLSVDVIMVLVGLICGITLFVEVGVVLLIPLAFSIAKKTNTSLLKLAIPLCTALMAVHCVVPPHPAALYVANKLGADIGSVIVYGLLVGLMASLIGGPLFLKFLGQRLPFKPVPTEFADLKVRDEKTLPSLGATLFTILLPIALMLVKTIAELNMARESGLYILVEFIGNPITAMFIAVFVAYYVLGIRQHMSMGTMLTHTENGFGSIANILLIIGAGGAFNAILKSSSLADTLAVILSNMHMHPILLAWLVALILHAAVGSATVAMMGATAIVAPMLPLYPDISPEIIAIAIGSGAIGCTIVTDSLFWLVKQYCGATLNETFKYYTTATFIASVVALAGTFLLSFII”, the protein production result is listed as “failed”. As for “MKKYLAGLAAVSVAGGAAPTLDSVQAAPEQNTQKAATTVQASASNNSSYTVNTSVLHVRAGSSTSHDIISRVYNGQSLNVIGEENGWFKININGKTGFVSGEFVSKSGAANNNVSTGGNNKVTADVLRVRTAPNTSSSVSGRVYAGQTLNVIGQENGWVKINHNGQVGYVSGEFVSGVSSNGGSSNNNTNNNNQEVKPASGNYTVNVSSLRVRTGPSTSHTTVGSVKKGQVVQVVGEVQDWFKINYAGQTAYISKDYVTKGGSNENVTEGNKQEQNNNGTIQTGGSYVVNATSLRVRTGPAAYHSVIGGVLNGTTLNVVGSENGWFKVNYQGKTGFVSSEFVKFVKGGTTTPEQPKQPEKPNQGTIGDYYINASALNVRSGEGTNYRIIGALPQGQKVQVISENSGWSKINYNGQTGYIGTRYLSKTPVGGAVDNKPNNNQNNNQNNNNNNNTGNNSGDSSSVLAYAKSMQGVPYVWGGTSANGVDCSGYIYHVFKKFGHNISRQSVAGYWSSLPKTSSPQPGDLIYFQNTYKSGPSHMGIYLGGGSFIQAGDKGVAIASLSNSYWKSHFLGYTKAP”, the protein production result was “failed”. On to “MDRPLSFAAVSFLATLVTLLVLMQTALVAGGPLRALVLASVGAIGTYFAIRSGVLKS”, for which the protein production result is “failed”. The result for “MPVHSRGDKKETNHHDEMEVDYAENEGSSSEDEDTESSSVSEDGDSSEMDDEDCERRRMECLDEMSNLEKQFTDLKDQLYKERLSQVDAKLQEVIAGKAPEYLEPLATLQENMQIRTKVAGIYRELCLESVKNKYECEIQASRQHCESEKLLLYDTVQSELEEKIRRLEEDRHSIDITSELWNDELQSRKKRKDPFSPDKKKPVVVSGPYIVYMLQDLDILEDWTTIRKAMATLGPHRVKTEPPVKLEKHLHSARSEEGRLYYDGEWYIRGQTICIDKKDECPTSAVITTINHDEVWFKRPDGSKSKLYISQLQKGKYSIKHS” reads “not failed”. On to “GMFGLVFNTRRATFADEKVREGLSYALDFEWLNRNILGGSFKRTQSYWQNSPLGAYGNAADERELALLGDAAKTMPAELLAGTYAMPTTDGTGADRKVLKLAVDKLKEAGYSIKNGKMSDANGRQLAFEIMTQNPAQERIALAYQRSLNLIGVAMGIRSVDDGQYQARSNSFDYDMIIRSLPSSLSPGMEQLNRWNSLSRDAQGSFNYAGVANPDIDRMIEALLQARSTEDFQAAVRAYDRLLVAGHYIIPLYYIG”, for which the protein production entry is given as “failed”. With “MGSASSCRRIYIGTEANQYLAEQTLIYSIRKHLSDPSIEIIPLTQTQQRVGGTRFGFVRFTLPQAMGYQGKALYLDADQLALTDLAPIFDLLPDDKAIACVYEAEGLYNGKPHVQTWHTSVMLLDCEQLAWQPDELFATVVPNKQEPKPGQIRYRNFMELQWFEQERIAKLPPSWNHFNIVTPETNIVHFSHVRSQPWKNPRHELTDFWLGYLKEAIAAGYLRRRDVVAAVARGHVHPWTLKAIA”, the protein production result is reported as “failed”. The result for “MSVEQLNQLNIEELIITLENVLKILKQYSKVSNSSITFKEFVDYWFEAYASTAVKPSTQKRYRQLLKPALRAIGNKPLNKVKPLDIQNIYIALAGTQSNCTILKLHRLLHEIFKHAQMWEYISDNPVKKVVPPTPEKKVFDVWDVETAKRFLEIIKDEPIYYPALIALHTGMRAGEILSLKWCDVNFETRVISIVKSERKNRGLKTVNLKTKTSKRAVYMNDILYKELKNLYEITKPKPDDFVCPRLPTGNLTVNYLSRKFKKLVKKHNFPLIRFHDLRHTFATLMLSLGVNTKIVAEILGHSDIKLTADTYSHVLPTMQEEAMKEFVKLWK” reads “failed”; that for “MKHASHKATTVSRQKFSLAKALFASGKGSHSVRAVRAVQSAGSDAVVLGLDPAIAEKINEIAPQTRRSIREAARAAERRSHILASASLAALVGTAAGALAFSNNEDATNSFVADPATTTTQIKRISDVTAASRSEARTDLSSSSVTAQSTNEGGWGLSNSDSTLDAKLMNRNNANNPVVSALVDADGDAVPAGFNPNHAVGTNSNNYPWGQCTWYAYQRRAELGLPSSGNFGNGGAWAASASALGYWVDNTPRHVGDAVVFAPGQADADGAYGHVAVLEKINADGSIEISESNAKGLGVISTRTFSAAEAGKFQYVHY”, “failed”. The result for “MNFNWFLMLFLFNFSVLLGSDTTALGHYQRANEYYLSKRYYDAIDELVEAIKINPNYYEAYKFIASIYYSLKIYTQAQFFIEKASKMSNEDTEYKILYANILLKNDKIDQAKKIYSEVLVKQRNNIDALVGLASIFEKNGLFIAAANYYLSILDYSQNNYSAFEHLIDIYQRLGMHDKIRHLINKVRVNFLSFPDFHKRVAEFYISINNLGLAEKYALNYLALIESSYKDFGVVDAYRLLALVYLHEFKYEDAIEALQKAILVNKDSDELYYLLGYSYLRFGDIEKAILNLERAKNLKKDLEFYNIALEESFFASNFRNFLKNNSNARISKHYENEGLKAFKSLNLNKALFNAKNAVDIWPDNDSARFLLSKIYKLMNLDIMAYEQLFYLAKQRNSTDSRILDFYDVVSFDVRKSLFYKYGYKSIADFNKLYDDRVVYKMAIFTQSENKFFGANDLILRYAERVLERNLNMEIVNYNFDYNKNRDYLINNFSEGFSYSRNNNLDLFLIFDFKADILKNTATLVVNIFSGKTGIKLVSFSYDVGGVNYLSNALNSLSKDFHDYLPKKGKILQIKNDDALINLGQVNGVVKGDVFLILKEGALNSDTRDSGFIVYKKSDILGEILIEDISDYISRGIVKSSTFLKDYVQEGATVLIKR” reads “failed”.

As to “AIVNASNNAILTTSITGEILSANPAAVQMFQSLEQELKGISVSRLFAEKDEMHFFFDFQSNVYSLQRKALGISVECLSLRSDGTEFPAQAELQWADRAKQPLIVITFINLS”, the protein production result was “failed”. Regarding “MLDHVIRGATVVDGTGAPAYTADVGIRDGRIAAVGTVTEPARAGEDAAGLVLAPGFVDPHTHYDAQLFWDPYATPSLNHGVTTVAGGNCGFTLAPLNPDRPQDADYTRRMMSKVEGMSLVALEEGAPWSWHTFGDYLDALEGRIAVNAGFMVGHCALRRYVMGPDAVGGRPTREQLERMLALFHEAMDAGAWGLSTTQSSTHSDGDGQPVASRHARPAELLALARAVGEHEGTQIEAIVAGCLDQFSDAEIDLFVEMSAAAGRPLNWNVLTIDAAVPERVPRQLTASERARKAGGRVVALTMPILTPMNMSLGTFCALNLIPGWGEVLGLPVPERIARLRDPDVRAELLRRADSKEAGVFRRLANFGRYVIGDTYSTANEGLTGRVVNDIAAERGQDPFHCLVEICAADELRTVLWPMPTDNDPDSWALRAETWRHKDVLLGGSDAGAHLDRMCGAPYTTRFLGDCLRGRKLVPLEQAVKMLTDDPARLFGLRDRGRIREGFHADLVLFDPARIDAGKATLVHDLPGDSPRLDSKAIGVTAVWVNGVEAIRDDVVTGAVPGKVLRSGRDTRTVSTR”, the protein production result is recorded as “failed”. Consider “MTVRSRFFTEAEGKAVGVENAAAKGDVLLVCEHASATIPQKYGTLGLSADVLSSHAAWDPGALAVARLLSEKFHATLVYQRFSRLVYDCNRPPESPSAMPVKSEIYDIPGNFDLDEAERFARTSALYVPFHDRVSEIIAERQAAGRKVVVVTIHSFTPVYHGRFREVEIGILHDNDSRLADAMLAGAEGASLTVRRNDPYGPEDGVTHTLRLHALPDGLLNVMIEIRNDLIANEGEQAAIAGFLHELMGKALSSIEE”, for which the protein production entry was “not failed”. The result for “INSAIELMEHNSSLSISEIAQFTNTSTAYFSRIFKKTIGETPVCFYTKIKLKKVQKLLITTNLTLAEISEQTGFTDPFYLSKVFTTHLGCSPRTYRKN” reads “failed”; that for “MKALIFAAAGLLLLLPTFCQSGMENDTNNLAKPTLPIKTFRGAPPNSFEEFPFSALEGWTGATITVKIKCPEESASHLHVKNATMGYLTSSLSTKLIPAIYLLVFVVGVPANAVTLWMLFFRTRSICTTVFYTNLAIADFLFCVTLPFKIAYHLNGNNWVFGEVLCRATTVIFYGNMYCSILLLACISINRYLAIVHPFTYRGLPKHTYALVTCGLVWATVFLYMLPFFILKQEYYLVQPDITTCHDVHNTCESSSPFQLYYFISLAFFGFLIPFVLIIYCYAAIIRTLNAYDHRWLWYVKASLLILVIFTICFAPSNIILIIHHANYYYNNTDGLYFIYLIALCLGSLNSCLDPFLYFLMSKTRNHSTAYLTK”, “failed”; that for “MMIVYKGEKMQFIRVNTLKINPEVLKKRLENKGVVLEKTFLDYAFEVKKSPFSIGSTPEYLFGYYMPQSISSMIPPIVLNPREDDFILDMCAAPGGKTTHLAQLMKNKGTIVAVEISKTRTKALKSNINRMGVLNTIIINADMRKYKDYLLKNEIFFDKILLDAPCSGNIIKDKNRNVSEEDIKYCSLRQKELIDIGIDLLKKDGELVYSTCSMEVEENEEVIKYILQKRNDVELIIIKANEFKGINIKEGYIKGTLRVFPPNEPFFIAKLRKI”, “not failed”. Turning to “MSTPTPDTDVEQVGLANTAFYEAMERGDFETLSSLWLTPADLGVDEEYHDPADAGVVSCVHPGWPVLSGRGEVLRSYALIMANTEYIQFFLTDVHVSVTGDTALVTCTENILSGGPPPDDSDELGPLVGQLVVATNVFRRTPDGWKLWSHHASPVLAETGAEEGDESPD”, the protein production result was “not failed”.

With “MNYAEKKKNWIKLGIFALFAGGILAYIGISNADIHWGGFISMMIFFAFTYYLGAFYAAKKSNSFSDMIVAKRSMPFFVGMVTMAATWVGGGYINGTAESTYSDGLIWAQAPWGYALSLIIGGIFFARKMRRHQFMTIIDPLEQRFGKRMAGVLYIPALLGELFWSAAILTALGTTFGMILNIDFQTSIILSAMIAIAYTVAGGMWAVAFTDVFQMIVILLGLFLVVPFVLSNVGALDSVWANYRHDFGSSANLLPPLDGWKNPDWGNLFWNWWDNALLLIFGGIAWQVYFQRVLSAKSESAAMWQSIIAGVICIIAAIPCVIIGAAGNSTDWSLFGASAPDNPAMILPQTLAYLTPGIIAGLGLGAIAAAVMSSMDSSILSASSMAAWNIYRPLIKPKATQKQLQKVVKRSIILFGAGAAVIALNVKSVYTLWYLASDLVYCILFPQLTMALFYKRANLYGSIAGFAVAVILRLGGGEPAFGIPPLLPYPMIEDGTVLFPFRTLAAVTAFMTIFAVSELTQRKCPPKQLVLPQEKQKDDRAA”, the protein production result is given as “failed”.

For the origin of these results see a protein production outcome set (Wang et al. 2014).
